The target in this assay is Snf2 (S. cerevisiae, UniProt P22082 1-1703). The experiment in a line: cryo-EM structure.
Sequence of Snf2 (P22082 whole entry): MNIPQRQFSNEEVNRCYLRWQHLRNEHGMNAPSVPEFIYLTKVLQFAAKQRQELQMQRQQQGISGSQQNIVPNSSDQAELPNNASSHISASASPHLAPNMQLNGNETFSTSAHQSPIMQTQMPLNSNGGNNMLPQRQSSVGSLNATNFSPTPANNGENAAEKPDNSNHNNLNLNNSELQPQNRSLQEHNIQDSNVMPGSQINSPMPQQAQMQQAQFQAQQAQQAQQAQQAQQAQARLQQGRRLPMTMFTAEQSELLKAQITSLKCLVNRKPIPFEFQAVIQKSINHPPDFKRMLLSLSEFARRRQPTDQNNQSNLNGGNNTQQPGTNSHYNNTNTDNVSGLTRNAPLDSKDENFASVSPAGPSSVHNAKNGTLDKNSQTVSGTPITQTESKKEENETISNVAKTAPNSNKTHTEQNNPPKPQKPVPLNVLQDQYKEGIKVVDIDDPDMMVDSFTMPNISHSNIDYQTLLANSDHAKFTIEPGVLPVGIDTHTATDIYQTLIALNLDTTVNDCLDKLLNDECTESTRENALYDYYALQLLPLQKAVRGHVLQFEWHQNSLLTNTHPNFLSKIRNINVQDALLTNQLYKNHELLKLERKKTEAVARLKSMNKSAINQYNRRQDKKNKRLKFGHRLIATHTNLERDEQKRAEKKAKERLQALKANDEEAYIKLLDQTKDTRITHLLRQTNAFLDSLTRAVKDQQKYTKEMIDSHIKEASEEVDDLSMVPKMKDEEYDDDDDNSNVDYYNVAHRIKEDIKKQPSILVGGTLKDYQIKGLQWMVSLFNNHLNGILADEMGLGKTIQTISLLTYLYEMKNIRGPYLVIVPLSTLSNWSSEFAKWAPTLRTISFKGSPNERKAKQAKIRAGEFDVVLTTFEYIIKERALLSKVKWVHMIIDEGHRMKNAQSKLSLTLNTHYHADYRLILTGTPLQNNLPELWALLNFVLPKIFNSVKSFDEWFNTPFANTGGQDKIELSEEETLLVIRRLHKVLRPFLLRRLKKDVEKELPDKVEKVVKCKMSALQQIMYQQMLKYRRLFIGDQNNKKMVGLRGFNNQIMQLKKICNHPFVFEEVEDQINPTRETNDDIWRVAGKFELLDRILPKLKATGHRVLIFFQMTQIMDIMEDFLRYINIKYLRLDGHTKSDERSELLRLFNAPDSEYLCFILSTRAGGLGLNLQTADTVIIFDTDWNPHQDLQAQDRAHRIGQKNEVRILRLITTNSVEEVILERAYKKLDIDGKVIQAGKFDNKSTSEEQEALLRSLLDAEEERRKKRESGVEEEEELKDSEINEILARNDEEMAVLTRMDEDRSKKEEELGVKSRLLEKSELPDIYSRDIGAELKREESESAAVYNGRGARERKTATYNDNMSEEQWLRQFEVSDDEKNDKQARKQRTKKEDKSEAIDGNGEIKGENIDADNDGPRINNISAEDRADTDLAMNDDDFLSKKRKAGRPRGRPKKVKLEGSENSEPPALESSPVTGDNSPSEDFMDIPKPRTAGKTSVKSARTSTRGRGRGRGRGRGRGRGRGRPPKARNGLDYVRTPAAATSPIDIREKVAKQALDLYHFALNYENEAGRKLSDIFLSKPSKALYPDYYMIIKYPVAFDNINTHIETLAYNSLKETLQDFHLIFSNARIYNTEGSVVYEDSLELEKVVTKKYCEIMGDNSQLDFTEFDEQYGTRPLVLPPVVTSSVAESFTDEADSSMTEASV

B1: Arp7 (natural protein)
chain: MTLNRKCVVIHNGSHRTVAGFSNVELPQCIIPSSYIKRTDEGGEAEFIFGTYNMIDAAAEKRNGDEVYTLVDSQGLPYNWDALEMQWRYLYDTQLKVSPEELPLVITMPATNGKPDMAILERYYELAFDKLNVPVFQIVIEPLAIALSMGKSSAFVIDIGASGCNVTPIIDGIVVKNAVVRSKFGGDFLDFQVHERLAPLIKEENDMENMADEQKRSTDVWYEASTWIQQFKSTMLQVSEKDLFELERYYKEQADIYAKQQEQLKQMDQQLQYTALTGSPNNPLVQKKNFLFKPLNKTLTLDLKECYQFAEYLFKPQLISDKFSPEDGLGPLMAKSVKKAGASINSMKANTSTNPNGLGTSHINTNVGDNNSTASSSNISPEQVYSLLLTNVIITGSTSLIEGMEQRIIKELSIRFPQYKLTTFANQVMMDRKIQGWLGALTMANLPSWSLGKWYSKEDYETLKRDRKQSQATNATN
Take B1: the binding result was “binds”.

B2: Swi1 (natural protein)
chain: MDFFNLNNNNNNNNTTTTTTTTNNNNTNNNNTNNNNNPANNTNNNNSTGHSSNTNNNTNNNNTNTGASGVDDFQNFFDPKPFDQNLDSNNNNSNSNNNDNNNSNTVASSTNFTSPTAVVNNAAPANVTGGKAANFIQNQSPQFNSPYDSNNSNTNLNSLSPQAILAKNSIIDSSNLPLQAQQQLYGGNNNNNSTGIANDNVITPHFITNVQSISQNSSSSTPNTNSNSTPNANQQFLPFNNSASNNGNLTSNQLISNYAASNSMDRSSSASNEFVPNTSDNNNNSNNHNMRNNSNNKTSNNNNVTAVPAATPANTNNSTSNANTVFSERAAMFAALQQKQQQRFQALQQQQQQQQNQQQQNQQPQQQQQQQQNPKFLQSQRQQQQRSILQSLNPALQEKISTELNNKQYELFMKSLIENCKKRNMPLQSIPEIGNRKINLFYLYMLVQKFGGADQVTRTQQWSMVAQRLQISDYQQLESIYFRILLPYERHMISQEGIKETQAKRIFLQQFLQELLKKVQQQQQAAALANANNNINSASSAPTPAAPGASVPATAAPGTEAGIVPVSANTPKSLNSNININVNNNNIGQQQVKKPRKQRVKKKTKKELELERKEREDFQKRQQKLLEDQQRQQKLLLETKLRQQYEIELKKLPKVYKRSIVRNYKPLINRLKHYNGYDINYISKIGEKIDSNKPIFLFAPELGAINLHALSMSLQSKNLGEINTALNTLLVTSADSNLKISLVKYPELLDSLAILGMNLLSNLSQNVVPYHRNTSDYYYEDAGSNQYYVTQHDKMVDKIFEKVNNNATLTPNDSNDEKVTILVDSLTGNQLPTPTPTEMEPDLDTECFISMQSTSPAVKQWDLLPEPIRFLPNQFPLKIHRTPYLTSLKKIKDEIDDPFTKINTRGAEDPKVLINDQLSTISMILRNISFSDNNSRIMSRNFYLKRFISDLLWLVLIHPENFTCNRKILNFKKDLVIVLSNISHLLEIASSIDCLLILILVISFGQPKLNPMASSSSFGSESLTFNEFQLQWGKYQTFGVDILAKLFSLEKPNLNYFKSILLNKNTGNNLYDRNSNNNHKDKKLLRRLLNLYNDNNKNNNNRHNLLNDVVSFLFSAIPLQQVLSQSADPSLLIDQFSPVISQSLTSILVIVQKILPLSNEVFEISENNSDSNSNNNGNKDSSFNFNKNLPFVWLSSEENIGSGLLKLSEIILNINNSTSKNTLLQQQNYSKVLLPSINISCVQLIKCLVEKSICFENCLNNDPEILKKIASIPNLFPTDLEIFQLFTNPSVDIQIINQYQLLYNLKNDILTNLE
As for B2, the binding result is reported as “binds”.

B3: Arp9 (natural protein)
chain: MAPFRQDSILIIYPRSQTTLVQFGLNEETFTVPELEIPTQIYRTTRQDGSYTYHSTNKDNKAELIKPIQNGEIIDISAFTQFLRLIFVSILSDRANKNQDAFEAELSNIPLLLITHHSWSQSDLEIITQYVFESLEINNLIQLPASLAATYSMISLQNCCIIDVGTHHTDIIPIVDYAQLDHLVSSIPMGGQSINDSLKKLLPQWDDDQIESLKKSPIFEVLSDDAKKLSSFDFGNENEDEDEGTLNVAEIITSGRDTREVLEERERGQKVKNVKNSDLEFNTFWDEKGNEIKVGKQRFQGCNNLIKNISNRVGLTLDNIDDINKAKAVWENIIIVGGTTSISGFKEALLGQLLKDHLIIEPEEEKSKREEEAKSVLPAATKKKSKFMTNSTAFVPTIEYVQCPTVIKLAKYPDYFPEWKKSGYSEIIFLGAQIVSKQIFTHPKDTFYITREKYNMKGPAALWDVQF
For the molecule B3, the binding result is recorded as “binds”.

B4: Rtt102 (natural protein)
chain: MDPQTLITKANKVSYYGNPTSKESWRYDWYQPSKVSSNVQQPQQQLGDMENNLEKYPFRYKTWLRNQEDEKNLQRESCEDILDLKEFDRRILKKSLMTSHTKGDTSKATGAPSANQGDEALSVDDIRGAVGNSEAIPGLSAGVNNDNTKESKDVKMN
Turning to B4, the binding result was “binds”.

For the origin of these results see doi:10.1101/805184 (bioRxiv, 2019).
